# From the domain aggregation screens of Martell et al. (2025)
# Assay: soluble fraction after stress (log2 fold change); higher = more stays soluble; pooled small domains, quantitative proteomics
# Conditions: stress: 75 degC
# 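Also: 20 min heating vs room temperature control held 20 min.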
row,Sequence,soluble fraction (log2)
1,HMDLTKLFDHDSEYGKSYVFGKITDEMIARAEQTLGYRMPASYIELLKVQNGGMISDELDESWLTTIYGIG,-0.359
2,HMDMAYEVVKAFHDLQDYKDVKGGKVYHHYDVGDTYPRQGLDPAPDETRIEELLSSGNAQGVPLIAEV,0.112
3,HMDMNVQNYRGLSLDRAKKLISDLGLKYEVVGTGDSVVKQVPSSGSRMSKENGRIILYTENVEDA,-0.0826
4,HMDMPLIGTAIRGWGIISPAQQETLIKMSILTVEDLAAINDEGIKRIGMGGLDLKNKAKAWLLQLK,-2.2
5,HMDMRLADLIGRDGITITFMRPSGKVEIDGEIYDAVSDVGLIDKNEEVEVIKFENAQLVVTKKNKN,0.102
6,HMDMSVDQFNQGIRGSELYQQFIHGRGLQQPDGKTREWTDADRNAWRRTLEASGVRIPDGMKIDNAGNLNE,0.375
7,HMDNEIIEEEKITTLMITHNMRDAIKYGNRLIMLNEGRVIFDISGEEKKNLTVQELLEKFEK,0.242
8,HMDNEIMYPIQINGKVRAELFVSTERAMDKQYVLEQAKANEKIQGYLEGNRLVKEIFVPKRIVNLVIAP,-0.576
9,HMDNIEIGNRIREIRIKKNISVFELAYRTKTSQSHIYQIEGGSQNMSIELLFKIADTLETDPNTILGV,-3.97
10,HMDNIPAHIKAKIINYVNRNYPGAIIKDIERKSNGRYEAEIVYNNREYDLLFDAQGNFISASLDDK,-0.0583
11,HMDNNFIQSLYPIAIGISKNQLDPWDLINGWVEYYLKNKEKYINHPNLKAVAVLKMKGLLIDHFRKS,-3.55
12,HMDNPKGNLQEAVQAKGNEPIEYRVLNVDGPDHAREFKIAVFIGGKRKGTGVGNSKKKAEEIAAEKAFKRM,0.109
13,HMDNPVPVIITDQNFQPQLWKNVGVPTDTLFHELSAANQRKLENLMKTMIQTPLTDNGKISGYAFYSK,-0.00686
14,HMDNREKLRQEFLENLKELQEQNDIPQQEIDRVILDYDGVAEFLEDEGALKRYGGQLVDMTAYRAGAIPS,0.0771
15,HMDNRLFKMLYYLLDKERATAPELAAEFEVSTRTIYRDVEALSSAGIPIYAEPGRNGGIYLLQD,-2.3
16,HMDNTSNVEKTLRFIRQRGKVSRKEVETLLGSSKFPAISALNELLAENKIVKTGSGPAVRYSVS,-0.353
17,HMDNVINDGMQVRFTGNVDINGTPLKIYDRIYTAEGISDDTVVLMLGNDVYARVYLSDVVPAD,-0.975
18,HMDNWLSGLAVEADRMILTQPGEVFDRLSRAFEATLIRRALASTGGRRIEAAHLLGIGRNTITRKIQDLGL,-2.62
19,HMDPDARQDAEVWLLDFLSAGPRTAQEIFTAARVEGHTRVTVKRAKATAGIQSVKQDFDGPWVWVLPGSG,-0.455
20,HMDPFAYEVKVTDLAAGSSEIRTVYTEQGSFNIPSGMSGNLKIQVRSASMYDEVEPSDWYTIGEEDIN,0.0347
21,HMDPLASLTPREREVLSLMAQGLSNLAVAERLVVSAGAVEKHISSIFTKLDLAPSEHEHRRVLAVLRYVAG,-2.86
22,HMDPPISNDARNAINAKLMKFSELHPNEMKKLVEAYKKEFKVSKISPITLARQGEFLSHAISKIDDT,-0.0671
23,HMDPQDGTVKFFNGARGFGFITPDGGGADVFVHVSAVERAGLTQLVEGQRVNFQTLPDTKGKGPKAVNLKV,0.106
24,HMDPSDQLYTVPPSAEGLRLDLFLVQHVPHMTRALATQLTGAGQVRVNGRRAKKGDRLPSGAQVRLEQAP,-0.85
25,HMDPSHGESRENLDIMRIIDETHLEYPSWGYRKMTDHLRANHGYTINRKRVRRLMRLMDIIALFPG,-1.33
26,HMDPSVTGLLTRLGISPQTAQELAGQYEEPYILEKIAIVEAHPEYVKNAAGFVITALQEDWKD,-0.591
27,HMDPTHDMHFLVKDQVTGQPLPNMPYRLQLDNGQTLTGRTDALGMTEKISGHSPHIASIEVPY,0.117
28,HMDPVILDINSVKALLGISNKADFMAELSRLVVTEGDKKMIIPLAKEVGIDNVAVYKRNEIENISNYK,-0.129

row,Sequence,soluble fraction (log2)
1,HMDQAEDVLSIPVDALMRGNQVYIKDDTVTEQQGPIPAGFKAVEVETGLISDSYVEIKSGLSEGDTVYVAE,0.129
2,HMDQESFGYFHVKYADVKQVADLVQKLNIPAVTWADERTRRLVALGSPATLQRISQVLNMVDL,-0.781
3,HMDQHPYGEDSFRGDNPPAGFDIKGNEDSMKFHEPSSPWYGRTIAEVWFRSAAAAEAAGFVNAV,-0.0403
4,HMDQINNDLRKLIEFLPEDQKTVLKMRHFQEMSFKEIAKATGVSINTALGRMRYALINLRKLIEENEI,-2.06
5,HMDQPLIEPLSERELEVLSLIAAGYSNAEIAERLVIAVGTVKRHINNLYGKLGAGSRTQALAIAREIGLM,-0.107
6,HMDQTKYDAIITEAKKLTAEGQYKESEEKLATIPVSDLGKPHYSIVKETVEKLNNQNNEGLKRQEEVAVE,-0.0329
7,HMDQVLHQLVEVLRRSEIRISPAETLDAFKVLRNVGIDNKSLLREALALTLAKSIHEKIIFYETFDEFFT,-1.46
8,HMDRADIDAVDAEWVRATMERLGLRAKHIESHTGISKSTLSILLNGHRPLTRWHKIAFYYLFKHIEF,-2.76
9,HMDRDQNVEEGQRSLKSEMGRFGLLIANMDDLAERVNYGNAEDMYAAIGAGDLRLMQVVHAAEEMLG,0.097
10,HMDRENNITAGREILEKELSRLALNMKMVNLQDYAARFNVKHSDDILAGIGAGDIRPAHIVNAIAEKLT,-0.0151
11,HMDREQLELYVGEVRVLQVGELRRIAIGNGKVLQASALDRGQLLLIPEAPGQSVLYLWTRDGTERHLSISV,0.0104
12,HMDRESFIKLGRELARSAFAHVGQKSTEKALETAADVLRLKDPNEVLARLGSAELTGRQVVQAIYPELI,-0.277
13,HMDRFRYYITEDSVQRGTYPYVDETTLKRFTSQLHKYEQGMISAYGYLEYSKPLTAEQIKDYTLMPSP,-0.0579
14,HMDRFVLQLSKRYYDSSIEGVRKALAAFPVKTELLDQDRGGRPFYHENGKENEPVFRIMFHPEEGM,-0.421
15,HMDRIISTPMPGRVVKIPVTEGEPVAKGATVITISAMKMESEYKSPIDGIVKKIHVSEGDNINANQPLIEI,-0.51
16,HMDRKFFYEDQYQDYLGEELKVSFFDTDNKKTVRGTLSEVTPHGIKINLEQETQEIPFSSIIQANLI,0.224
17,HMDRPARDEAQSWLADVLADGPVPTAEIREEAEAAGLAWRTIQRARIALSVEPIRGDGRNAWLWQLPG,-1.49
18,HMDRQIQITVAENEAGQRLDAFLAAKIPDMSRSYIQKLIEDGLILVNGQSTKGKVKTYSGMNIEVYMPE,-0.0484
19,HMDRRDEYHQHLLRLLLSGEIRDKDELQRRKVKLSGEYGLAGVPKNSETLALVPPDRLPEVLDILR,-0.214
20,HMDRSIGDIIAELRDLSAEQVERVLAHQRETGVRFGEAAVALGYASKEDVLFALSQQFHYPYAPEE,0.0114
21,HMDRSVTAAELRLAAMDLLARREHGSQELEAKLSRRFHKRHYDVELLRSVIEQLTVEGLLSDERFAVS,-0.951
22,HMDRVTYPVSFNGKVRFQLELDAGMNAKEVETAALGHEKTAAQIEGKTIRKVIVVPGRIINIVV,-1.22
23,HMDRWTPLVVAVLSRGSHRFGELRAAIGGITPKVLTDTLRSMERDGLITRDQAPGVPPRVDYALTPLGS,-1.43
24,HMDSALKDDLNAFVKKLDVESQTLFMRRYFLGESVSSLASRFEMSEDNVGVKLFRIRAKLKKYLTGKGYD,-3.1
25,HMDSAMMDLVMRVQLALFTKGYDVGIIDGKIGPKTRAQIKRYQSDNRLSSTGTLTTSLLTSLGIQ,-3.16
26,HMDSATDRVALKELLNTLSARERTIITLRYFSDQTQTQVAKSLGISQVQVSRLENAILQRLRKL,-2.08
27,HMDSDELEAFRLITSVNGVGPKLGIAILSEFTAEKLTVFIASGDAKALTAASGVGIKLAQRIVLELKDKVG,-0.351
